Data reported in patent publication US20210364527A1 (QUANTUM SI, published 2021).
Like-named read-outs stand apart in the source and are kept apart here.

T1: IA peptide IAKLDEESILKQK (XAKLDEESILKQK, X = I)
T1 construct: Immobilized on the biolayer interferometry sensor
T1 peptide: IAKLDEESILKQK

T2: LA peptide LAKLDEESILKQK (XAKLDEESILKQK, X = L)
T2 construct: Immobilized on the biolayer interferometry sensor
T2 peptide: LAKLDEESILKQK

T3: F peptide FAKLDEESILKQK (XAKLDEESILKQK, X = F)
T3 construct: Immobilized on the biolayer interferometry sensor
T3 peptide: FAKLDEESILKQK

T4: VA peptide VAKLDEESILKQK (XAKLDEESILKQK, X = V)
T4 construct: Immobilized on the biolayer interferometry sensor
T4 peptide: VAKLDEESILKQK


Experiments:
Test in all cases: BLI heatmap
[1] = target: T1, IA peptide IAKLDEESILKQK …
[2] = target: T2, LA peptide LAKLDEESILKQK …
[3] = target: T3, F peptide FAKLDEESILKQK (XAKLDEESILKQK, …)
[4] = target: T1, IA peptide IAKLDEESILKQK …
[5] = target: T4, VA peptide VAKLDEESILKQK …
[6] = target: T3, F peptide FAKLDEESILKQK (XAKLDEESILKQK, …)

Binder | binding result [1] | binding result [2] | binding result [3] | binding result [4] | binding result [5] | binding result [6]
PS549 (other) MSESITTLPKKSRRLKEEEEQKTKRQPPYNVILLNDDDHTFEYVIFMLQKLFGHPPERGMQMAKEVHTTGRVIVMTTALELAELKRDQIHAFGPDPLIDRCKGSMSATIEPAPI | binds | binds | no binding |  |  | 
PS395 (other) MTVSQSKTQGAPAAQSATELEYEGLWRVVVLNDPVNLMSYVVLVFKKVFGFDETTARKHMLEVHEQGRSVVWSGMREKAEAYAFTLQQWHLTTVLEQDEVR |  |  |  | no binding | no binding | binds
PS409 (other) MPARLTDIEGEPNTDPVEDVLLADPELKKPQMYAVVMYNDDYTPMEFVVDVLQNHFKHTLDSAISIMLAIHQQGKGIAGIYPKDIAETKAQTVNRKARQAGYPLLSQIEPQG |  |  |  | no binding | no binding | binds
PS434 (other) MSRLPWKQEAKFAATVIIDFPDATLEAPTIEKKEATEQQIEMPWNVVVHNDPVNLMSYVTMVFQRVFGYPRERAEKHMLEVHHSGRSILWSGLRERAELYVQQLHGYLLLATIEKTV |  |  |  | no binding | no binding | binds
PS556 (other) MGDSNTSVAEPGEVTVVTTKPAPKKAKPKRQPKYHVVLWNDDDHTYEYVILMMHELFGHPVEKGFQIAKTVDADGRAICLTTTKEHAELKRDQIHAYGKDELIARCRGSMSSTIEPEC | binds | binds | no binding |  |  | 
PS575 (other) MASTQTPDLNEITEESTKSTGGPWRVVLWDDNEHTYEYVIEMLMEICTMTVEKAFLHAVQVDQEKRTVVFSGEFEHAEHVQERILTYGADPRMSNSKGSMSATLEK | binds | binds | no binding |  |  | 
PS408 (other) MTDPPSKGREDVDLATRTKPKTQRPPLYKVLLLNDDFTPMEFVVHILERLFGMTHAQAIEIMLTVHRKGVAVVGVFSHEIAETKVAQVMELARRQQHPLQCTMEKE |  |  |  | no binding | no binding | binds
PS418 (other) MSDHNIDHDTSVAVHLDVVVREPPMYRVVLLNDDFTPMEFVVELLMHFFRKTAEQATQIMLNIHHEGVGVCGTYPREIAETKVAQVHQHARTNGHPLKCRMEPS |  |  |  | no binding | no binding | binds
PS548 (other) MSDTITLPEEKTDVRTKRQPPYHVILLNDDDHTYQYVIYMLQTLFGHPPETGFKMAQEVDKTGRVIVDTTSLERAELKRDQIHAFGPDPYIERCKGSMSAMIEPSE | binds | binds | no binding |  |  | 
PS578 (other) MSGTVVESKPRNSTQLAPRWKVIVHDDPVTTFDFVLGVLRRVFAKPPGEARRITREAHDTGSALVDVLALEQAEFRRDQAHSLARAEGFPLTLTLEPAD |  | binds | binds |  |  | 
PS550 (other) MPTFTEPEVVNDTRILPPYHVILLNDDDHTYEYVIHMLQTLFGHPQERGFQLAVEVDKKGKAIVFTTSKEHAEFKRDQIHAFGADPLSSKNCKGSMSAVIEPSF |  | binds |  |  |  | 
PS393 (other) MSDEDGEDGDENAVGIATRTRTRTKKPTPYRVLLLNDDYTPMEFVVLVLQRFFRMSIEDATRVMLQVHQKGVGVCGVFTYEVAETKVSQVIDFARQNQHPLQCTLEKA |  |  |  | no binding | no binding | binds
PS412 (other) MATKREGSTLLEPTAAKVKPPPLYKVLLLNDDYTPMEFVVLVLKKFFGIDQERATQIMLKVHTEGVGVCGVYPRDIAHTKVEQVVDFARQHQHPLQCTMEES |  |  |  | no binding | no binding | binds
PS419 (other) MEKEQSLCKEKTHVELSEPKHYKVVFHNDDFTTMDFVVKVLQLVFFKSQLQAEDLTMKIHLEGSATAGIYSYDIAQSKAQKTTQMAREEGFPLRLTVEPEDN |  |  |  | no binding | no binding | binds
PS570 (other) MTGAGASQPSILEETEVRPRLSDGPWKVVLWDDDFHTYEYVIEMLMDVCQMPWEKAFQHAVEVDTRKKTIVFSGELEHAEFVHERILNYGPDPRMGSSKGSMTATLEQ | binds | binds | no binding |  |  | 
PS407 (other) MPSNKRQMCLSDIKNSFNESGIVDWHISPRLANEPSEEGDSDLAVQTVPPELKRPPLYAVVLLNDDYTPMEFVIEILQQYFAMNLDQATQVMLTVHYEGKGVAGVYPRDIAETKANQVNNYARSQGHPLLCQIEPKD |  |  |  | no binding | no binding | binds
PS546 (other) MSDTITLPGRPEVERDERTRRQPPYNVILHNDDDHTFEYVIVMLNQLFGYPPEKGYEMAKEVHLNGRVIVLTTSKEHAELKRDQIHAFGPDPFSSKDCKGSMSASIEPAY | binds | binds | no binding |  |  | 
PS422 (other) MTQIKPQTIPDTDVISQTQSDWQMPDLYAVIMHNDDYTTMDFVVFLLNAVFDKPIEQAYQLMMQIHQTGRAVVAILPYEIAEMKVDEATSLAEQEQFPLFISIEQA |  |  |  | no binding | no binding | binds
PS394 (other) MAERRDTGDDEGTGLGIATKTRSKTKKPTPYRVLMLNDDYTPMEFVVLCLQRFFRMNMEEATRVMLHVHQKGVGVCGVFSYEVAETKVGQVIDFARANQHPLQCTLEKA |  |  |  | no binding | no binding | binds
PS425 (other) MTHYFSNILRDQESPKINPKELEQIDVLEEKEHQIILYNDDVNTFEHVIDCLVKICEHNYLQAEQCAYIVHHSGKCSVKTGSLDELVPKCNALLEEGLSAEVV |  |  |  | no binding | no binding | binds
PS433 (other) MMSSLKECSIQALPSLDEKTKTEEDLSVPWKVIVLNDPVNLMSYVVMVFRKVFGYNENKATKHMMEVHQLGKSVLWTGQREEAECYAYQLQRWRLQTILEKDD |  |  |  | no binding | no binding | binds
